PMC11315935, “Multi-layered heterochromatin interaction as a switch for DIM2-mediated DNA methylation” (Nature Communications, 2024)
Residue numbers refer to the chain shown, from its start.

What was measured:
[1] = target: T1, DIM2 (residues 1-1242) L134A/L139A double mutant (Neurospora crassa, UniProt Q3Y3Z1 1-1242, L134A | L139A); assay: SEC; analytical SEC, 1.0 µM DIM2 and/or 2.5 µM HP1 on Superdex 200 increase 10/300 GL, 20 mM Tris-HCl pH 7.5, 100 mM NaCl, 5% glycerol, 5 mM DTT; fractions on SDS-PAGE; details: both partners purified
T1 construct: source: E. coli BL21 (DE3) RIL, purified as WT; not shown: His6, N-terminal, cleaved; MBP, N-terminal, cleaved
T1 sequence (looked up): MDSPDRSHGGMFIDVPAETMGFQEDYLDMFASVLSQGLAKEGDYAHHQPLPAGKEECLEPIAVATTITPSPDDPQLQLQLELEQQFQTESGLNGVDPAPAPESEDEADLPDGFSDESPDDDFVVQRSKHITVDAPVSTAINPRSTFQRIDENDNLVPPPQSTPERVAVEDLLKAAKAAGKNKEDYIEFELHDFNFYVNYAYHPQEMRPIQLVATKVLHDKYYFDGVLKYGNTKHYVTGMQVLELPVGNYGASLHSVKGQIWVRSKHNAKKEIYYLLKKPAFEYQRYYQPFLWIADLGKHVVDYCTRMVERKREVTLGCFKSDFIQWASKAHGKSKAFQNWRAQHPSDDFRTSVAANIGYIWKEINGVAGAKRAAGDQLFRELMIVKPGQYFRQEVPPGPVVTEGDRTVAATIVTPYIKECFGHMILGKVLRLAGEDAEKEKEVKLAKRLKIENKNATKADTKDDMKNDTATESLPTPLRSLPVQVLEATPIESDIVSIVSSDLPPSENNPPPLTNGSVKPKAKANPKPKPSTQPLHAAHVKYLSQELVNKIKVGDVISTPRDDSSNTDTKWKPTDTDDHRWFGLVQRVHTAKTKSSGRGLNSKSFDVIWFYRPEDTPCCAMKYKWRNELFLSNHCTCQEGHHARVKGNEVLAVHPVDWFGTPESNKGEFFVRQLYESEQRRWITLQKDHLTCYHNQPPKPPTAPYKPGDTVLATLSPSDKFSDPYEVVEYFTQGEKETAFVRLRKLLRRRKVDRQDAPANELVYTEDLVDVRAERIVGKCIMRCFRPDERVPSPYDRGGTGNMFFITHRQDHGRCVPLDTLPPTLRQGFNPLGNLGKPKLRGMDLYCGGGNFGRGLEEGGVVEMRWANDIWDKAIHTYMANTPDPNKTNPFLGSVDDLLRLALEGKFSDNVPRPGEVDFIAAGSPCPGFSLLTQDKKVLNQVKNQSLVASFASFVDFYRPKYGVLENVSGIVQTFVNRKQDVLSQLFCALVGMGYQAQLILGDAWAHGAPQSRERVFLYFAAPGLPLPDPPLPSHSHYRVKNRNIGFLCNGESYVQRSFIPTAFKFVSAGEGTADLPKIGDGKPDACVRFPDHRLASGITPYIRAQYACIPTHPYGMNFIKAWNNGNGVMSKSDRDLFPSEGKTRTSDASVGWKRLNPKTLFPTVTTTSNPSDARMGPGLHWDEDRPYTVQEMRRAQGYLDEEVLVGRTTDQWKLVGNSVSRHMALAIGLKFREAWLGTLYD

[2] = target: T2, DIM2 (Defective-In-Methylation-2) N-terminal fragment, residues 1-1242, wild type (Neurospora crassa, UniProt Q3Y3Z1 1-1242); assay: as above; details: both partners purified
T2 construct: In the DIM2-HP1-H3K9me3-DNA complex C926 is covalently linked to zebularine of the DNA; also called WT DIM2; apo-DIM2; source: E. coli BL21 (DE3) RIL, purified (Ni-NTA, heparin, TEV cleavage, second Ni-NTA, SEC); not shown: His6, N-terminal, cleaved; MBP, N-terminal, cleaved
T2 sequence (looked up): T1 sequence (looked up) with A134L, A139L

B1: heterochromatin protein 1 (HP1), full length, residues 1-266 (natural protein, Neurospora crassa, UniProt Q1K612 1-266, looked up)
chain: MPYDPSALSDEEAASSVELDTRSATSSSKKQSRDKKSVKYTIPEPEDFEDEEQNGDGADEGGEDDEEGDEEEEDVYVVEKILDHMLNDDNEPLFLVKWEGYEKKSDQTWEPEDTLIEGASERLKEYFTKIGGREKIFEASAAAQKIKKRGRPSSNSGTPQASSNKRSRKNGDHPLNSEEPQTAKNAAWKPPAGSWEEHIAQLDACEDEDTHKLMVYLTWKNGHKTQHTTDVIYKRCPQKMLQFYERHVRIIKRDPDSEDREGSVSQ
notes: HP1, Neurospora crassa, UniProt Q1K612, residues 1-266, synthetic codon-optimised gene; Homodimer through its chromo shadow domains in the cryo-EM structures; only the CSDs (K189-I251, C191-I251) were traced; also called HP1-I; HP1-II; source: E. coli BL21 (DE3) RIL, purified (Ni-NTA, heparin, TEV cleavage, second Ni-NTA, SEC); not shown: His6, N-terminal, cleaved; MBP, N-terminal, cleaved
binding result [1]: binds
binding result [2]: binds
